Consider one molecule from patent publication US20230391828A1 (TECHNISCHE UNIVERSIT T DRESDEN, published 2023).

Bridge positions count the residues as written; N and C are the ends. Square brackets hold non-standard residues; d marks the D form. R8 = C=CCCCCCC[C@@](C)(N)C(=O)O; S5 = C=CCCC[C@](C)(N)C(=O)O; Pra = C#CC[C@H](N)C(=O)O

For one assay, the target named is T1, RBX1 (human (HeLa K cells), UniProt P62877 2-108).
T1 construct: Detected by western blot after pull-down from HeLa K cell extract
T1 sequence (P62877 2-108 limits assumed): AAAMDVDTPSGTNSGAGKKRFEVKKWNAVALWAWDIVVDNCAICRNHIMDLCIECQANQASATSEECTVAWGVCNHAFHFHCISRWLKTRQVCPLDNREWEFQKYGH
The assay can be described thus: pull-down from HeLa K cell extract with G3-6Pra on azide magnetic beads, western blot. In general terms: In western blotting, separated proteins are transferred to a membrane and probed.

The target in a further assay is T2, Cullin 1 (human (HeLa K cells), UniProt Q13616 1-776).
T2 construct: Detected by western blot after pull-down from HeLa K cell extract; also called Cullin 1, subunit of E3 ubiquitin ligases related to the APC/C
T2 sequence (Q13616 whole entry): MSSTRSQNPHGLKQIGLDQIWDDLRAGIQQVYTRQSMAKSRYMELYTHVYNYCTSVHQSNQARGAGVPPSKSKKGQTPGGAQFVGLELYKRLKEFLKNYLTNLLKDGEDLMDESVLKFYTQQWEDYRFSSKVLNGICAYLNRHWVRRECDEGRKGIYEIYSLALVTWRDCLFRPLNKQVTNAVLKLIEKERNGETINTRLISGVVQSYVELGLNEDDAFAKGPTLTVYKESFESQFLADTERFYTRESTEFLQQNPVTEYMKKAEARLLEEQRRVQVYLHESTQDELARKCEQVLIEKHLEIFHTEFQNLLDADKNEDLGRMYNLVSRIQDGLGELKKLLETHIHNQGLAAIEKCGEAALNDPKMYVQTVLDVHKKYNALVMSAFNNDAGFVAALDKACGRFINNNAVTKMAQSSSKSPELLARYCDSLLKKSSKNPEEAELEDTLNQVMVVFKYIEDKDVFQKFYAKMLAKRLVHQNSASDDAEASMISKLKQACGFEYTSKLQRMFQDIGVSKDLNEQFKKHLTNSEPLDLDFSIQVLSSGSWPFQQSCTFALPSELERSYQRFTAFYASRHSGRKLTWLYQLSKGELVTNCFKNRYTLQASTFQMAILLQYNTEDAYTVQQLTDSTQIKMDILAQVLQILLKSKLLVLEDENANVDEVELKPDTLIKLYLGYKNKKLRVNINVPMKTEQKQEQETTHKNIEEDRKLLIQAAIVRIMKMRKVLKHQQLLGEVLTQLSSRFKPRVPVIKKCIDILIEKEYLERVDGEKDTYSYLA
Described as above.

Description for Cullin 1: (§1) As a control, G3-N4Pra negative control molecule was used. Western blot analysis was performed and indicated proteins were detected using near-infrared fluorescence imaging. GAPDH serves as a control for unspecific binding.
(§2) In mean time, inhibitor molecules containing Propargyl (Pra) chemical group were covalently attached to the azide agarose or azide magnetic resin (Jena Bioscience) by Cu(I)-catalysed azide-alkyne cycloaddition reaction. […] The reaction was catalysed by 1 mM CuSO₄, 0.1 mM TBTA (Sigma-Aldrich) and 1 mM Sodium ascorbate and was performed on the rotating wheel for 30 min at room temperature in the volume of 1 ml. Subsequently, the resin was washed 5 times with the extraction buffer. The inhibitor-agarose resin was added to 1 mg of HeLa K cell extract and the inhibitor-magnetic resin was added to 0.5 mg of HeLa K cell extract followed by incubation at 4° C. for 2 h. Followed by washing the resin 5 times with the extraction buffer. Pull-down proteins were eluted by boiling for 15 min with 1×LDS sample buffer supplemented with 100 mM DTT (agarose resin) or by incubation with 1×LDS sample buffer for 10 min at room temperature followed by taking supernatant that was supplemented with 100 mM DTT and boiling it for 10 min. Samples were subjected to SDS PAGE and Western blot analysis.
Description for RBX1: as §1, §2

B1: G3-6Pra, Ac-cyclo(4,11)-EWPraZIKEIQRXRRA-NH2 (peptide)
peptide: Ac-EW[Pra][R8]IKEIQR[S5]RRA-NH2
modifications: staple 4-11; not fully specified (residue 3); printed as Ac-cyclo(4,11)-EWWZIKEIQRXRRA-NH2
notes: In the pull-down it was covalently attached to azide magnetic beads through Pra; also called ID; NO; 37
Turning to B1, the binding result with RBX1 and with Cullin 1 was “no binding” in each case.
